Here are results for 167 variants from the RNAGym collection of RNA variant scans (doi:10.7554/elife.80360).

Sequences and labels used below:
B1: HDV Ribozyme (parent)
chain: GGCCGGCAUGGUCCCAGCCUCCUCGCUGGCGCCGGCUGGGCAACAUUCCGAGGGGACCGUCCCCUCGGUAAUGGCGAAUGGGACCCA

Variants of B1 are the subject of the series. The series is described as follows: self-cleavage, relative activity (ratio to wild type); higher = more cleavage; co-transcriptional.
Turning to U60G A70U, the self-cleavage worked out at 0.969.

With C3U A71G, the self-cleavage is 0.89.

With C18G A56C, the self-cleavage was 0.0755.

G59U C63A: the self-cleavage was found to be 0.935.

Consider C19G G55A, for which the self-cleavage amounted to 0.0346.

Consider G25C C64G, for which the self-cleavage came out at 0.0573.

In the case of C15G G53A, the self-cleavage is 0.353.

Take G74A A87G: the self-cleavage was found to be 0.339.

Consider C22A A70U, for which the self-cleavage came out at 0.222.

G6A C64G: the self-cleavage was determined as 0.604.

For the variant C57U A70C, the self-cleavage came out at 0.855.

For G59U C75G, the self-cleavage came to 0.123.

For G2U U27G, the self-cleavage was determined as 0.0791.

For G74A U79A, the self-cleavage was found to be 0.0852.

For the variant A43C C63A, the self-cleavage worked out at 0.26.

On to C18A C86U, for which the self-cleavage turned out to be 0.0898.

For C26U C49U, the self-cleavage turned out to be 0.89.

In the case of C14G C85U, the self-cleavage amounted to 1.31.

In the case of C4U G73A, the self-cleavage stood at 0.293.

For the variant C30G C61U, the self-cleavage amounted to 0.026.

Regarding U12G C41U, the self-cleavage stood at 0.982.

As for G11C C36G, the self-cleavage was found to be 0.148.

With G6C U37C, the self-cleavage worked out at 0.923.

With G5A C66A, the self-cleavage turned out to be 0.173.

As for A43C A45U, the self-cleavage came to 0.554.

As to A16G U72C, the self-cleavage came out at 0.831.

For G25C C30U, the self-cleavage was 0.0326.

Regarding C3U G11U, the self-cleavage is 0.138.

As for U72G, the self-cleavage stood at 0.662.

On to G34U C63G, for which the self-cleavage came out at 0.0475.

On to G5U U60A, for which the self-cleavage was 0.447.

As to G11U C84G, the self-cleavage stood at 0.489.

For the variant U37G G59A, the self-cleavage is 0.

For the variant U47C C66G, the self-cleavage was 1.17.

In the case of C30G C75U, the self-cleavage was found to be 0.0755.

On to C48A U69G, for which the self-cleavage was 0.997.

Take C33G C44A: the self-cleavage was 0.0978.

For C19U C75G, the self-cleavage is 0.0739.

As for G10U C86A, the self-cleavage came out at 0.712.

For G25C G34A, the self-cleavage amounted to 0.143.

On to G10C G34A, for which the self-cleavage worked out at 0.166.

As for G34U U47C, the self-cleavage worked out at 0.234.

With U27C U60A, the self-cleavage amounted to 1.09.

With U46A G74U, the self-cleavage stood at 0.305.

Take C15U C64A: the self-cleavage came to 0.636.

In the case of U20A C36G, the self-cleavage is 0.18.

Regarding U23C G35A, the self-cleavage came to 0.655.

For C18U C24U, the self-cleavage was found to be 0.141.

With C30A U47A, the self-cleavage amounted to 0.486.

C18G G80C: the self-cleavage is 0.0707.

For G28C C63G, the self-cleavage turned out to be 0.101.

As to G28C C63A, the self-cleavage was 0.17.

Turning to C49U U60C, the self-cleavage stood at 1.04.

With U9C C48A, the self-cleavage is 0.911.

For the variant G17A C63G, the self-cleavage was 0.633.

With G52U G54U, the self-cleavage is 0.784.

For C14A C86U, the self-cleavage turned out to be 0.9.

For the variant C30G C32A, the self-cleavage was determined as 0.115.

Regarding U20C G67A, the self-cleavage is 0.17.

G54U A78C: the self-cleavage came out at 0.158.

In the case of C7U C41U, the self-cleavage worked out at 0.802.

For G82U A87U, the self-cleavage amounted to 0.462.

C3A G29A: the self-cleavage worked out at 0.012.

For the variant G76A A77G, the self-cleavage was 1.04.

With G17U C36U, the self-cleavage was found to be 0.166.

As to U46C G81A, the self-cleavage was found to be 0.208.

On to A77C G81C, for which the self-cleavage is 0.0504.

For the variant G1U C24A, the self-cleavage worked out at 0.183.

As for G10U G82U, the self-cleavage is 0.248.

As to C22G G68C, the self-cleavage is 0.0354.

Turning to G28A C48U, the self-cleavage is 0.0997.

For C3G C44U, the self-cleavage turned out to be 0.156.

For the variant C32U U69G, the self-cleavage was determined as 0.852.

With U27C G29A, the self-cleavage amounted to 0.125.

Consider G59C G82A, for which the self-cleavage stood at 0.32.

Turning to G54A G67A, the self-cleavage was determined as 0.698.

Consider C13G C63G, for which the self-cleavage came out at 0.133.

Consider C4U A16U, for which the self-cleavage stood at 0.462.

Take G28C A71U: the self-cleavage worked out at 0.0426.

As to G59C C64U, the self-cleavage worked out at 1.14.

For the variant U60A G67A, the self-cleavage was 0.95.

For the variant G35U U65C, the self-cleavage worked out at 0.434.

Regarding G1A G73U, the self-cleavage amounted to 0.0545.

With G35C G40A, the self-cleavage stood at 0.271.

Turning to U47A A83G, the self-cleavage was 0.734.

As to C57A A71G, the self-cleavage is 0.98.

As for G28C U79G, the self-cleavage was determined as 0.246.

For C15G G40A, the self-cleavage is 0.762.

As for G1C C57A, the self-cleavage was 0.284.

With A8U U23C, the self-cleavage is 0.532.

For the variant C62G G68A, the self-cleavage was found to be 0.199.

On to A45G C63A, for which the self-cleavage came to 0.872.

As to C13G G53C, the self-cleavage was 0.123.

Regarding C4A C63G, the self-cleavage was 0.0755.

In the case of C36U C75A, the self-cleavage amounted to 0.203.

Take C19G C41G: the self-cleavage came out at 0.0573.

Turning to A8C G39A, the self-cleavage is 0.151.

A8U C33U: the self-cleavage was 0.453.

Turning to G40A C62G, the self-cleavage worked out at 0.432.

In the case of A45C G80U, the self-cleavage is 0.0678.

Consider C3U U47A, for which the self-cleavage was determined as 0.969.

Take C3U U47C: the self-cleavage came to 0.564.

For the variant G1C G55C, the self-cleavage amounted to 0.214.

In the case of G6C U72C, the self-cleavage was found to be 0.0831.

In the case of G6U G73U, the self-cleavage was determined as 0.

As for C41G G68U, the self-cleavage was 0.596.

For C33A U69A, the self-cleavage came to 0.325.

For the variant C26U C61A, the self-cleavage was determined as 1.06.

With A8G C33A, the self-cleavage came out at 0.101.

Take C3U C86U: the self-cleavage was determined as 0.718.

As to A43G G50U, the self-cleavage amounted to 0.658.

Regarding C49A C66U, the self-cleavage came out at 0.979.

Take U12A G55U: the self-cleavage was found to be 0.185.

For the variant U27C C48A, the self-cleavage was 1.02.

Turning to C4G A87U, the self-cleavage was found to be 0.225.

As to G6C C18U, the self-cleavage worked out at 0.0923.

For C58G U60C, the self-cleavage amounted to 1.2.

As for A43G A45G, the self-cleavage was 0.554.

G2C G25C: the self-cleavage is 0.0346.

In the case of G31C U60A, the self-cleavage came out at 0.434.

On to G2A U27C, for which the self-cleavage turned out to be 0.125.

Consider A42C U79A, for which the self-cleavage was 0.213.

With C22U C48G, the self-cleavage stood at 0.635.

Consider U12C U60C, for which the self-cleavage was 0.594.

U65A A83U: the self-cleavage worked out at 0.539.

For the variant G11A C14U, the self-cleavage came out at 0.277.

Turning to G76A U79G, the self-cleavage stood at 0.672.

C32U A77U: the self-cleavage was found to be 0.496.

Turning to U27G C86G, the self-cleavage came out at 0.745.

Consider G28C C61A, for which the self-cleavage came to 0.0755.

For C18U C33A, the self-cleavage was 0.0354.

Regarding G5A G68A, the self-cleavage was 0.164.

In the case of G55C G80U, the self-cleavage came out at 0.216.

Regarding C61G A70C, the self-cleavage amounted to 0.944.

For G34C U46A, the self-cleavage amounted to 0.158.

For the variant G2C C3A, the self-cleavage was 0.103.

Take G5A G40C: the self-cleavage was found to be 0.136.

In the case of G25U U72C, the self-cleavage was found to be 0.111.

As to C19G C36U, the self-cleavage came out at 0.0767.

C13G C18U: the self-cleavage is 0.0875.

With U9G C24G, the self-cleavage came out at 0.453.

Take C7U A70G: the self-cleavage was found to be 0.831.

Turning to G73U A83G, the self-cleavage stood at 0.219.

As for C7G C63U, the self-cleavage is 0.674.

Turning to G28U G38U, the self-cleavage was 0.14.

Take A43U G73C: the self-cleavage stood at 0.43.

Turning to C41U C64G, the self-cleavage worked out at 0.635.

For C3U C24A, the self-cleavage was determined as 0.328.

G11C G28U: the self-cleavage worked out at 0.0268.

Turning to G55A U79G, the self-cleavage amounted to 0.85.

For C18U C48U, the self-cleavage came out at 0.639.

With C13G C24U, the self-cleavage worked out at 0.0504.

With A42C A77U, the self-cleavage was found to be 0.369.

In the case of G2C G82C, the self-cleavage was found to be 0.0272.

As to C3A C21G, the self-cleavage is 0.0115.

On to U79A G81U, for which the self-cleavage worked out at 0.295.

Consider G17C A70U, for which the self-cleavage was determined as 0.277.

Take U12C C41U: the self-cleavage was determined as 0.415.

As for G5C C32U, the self-cleavage was 0.0573.

Turning to C4G C21G, the self-cleavage amounted to 0.

C18A C49G: the self-cleavage was 0.119.

As to C3G U20G, the self-cleavage came out at 0.

Turning to C3G U20A, the self-cleavage amounted to 0.0755.

With C36U U37G, the self-cleavage came to 0.166.

Turning to C24G G50A, the self-cleavage is 0.104.

For the variant A16U A45C, the self-cleavage is 0.462.

For C4A C32A, the self-cleavage came out at 0.0332.
